The values below come from patent US20150218285A1 (TORAY INDUSTRIES, published 2015).

Numbering of substitutions follows the chain as printed.

T1: CAPRIN-1 protein on the cell surface of human cancer cells (human, UniProt Q14444 2-709)
T1 construct: whole, on cells; endogenous protein of human cancer cell lines
T1 sequence (looked up): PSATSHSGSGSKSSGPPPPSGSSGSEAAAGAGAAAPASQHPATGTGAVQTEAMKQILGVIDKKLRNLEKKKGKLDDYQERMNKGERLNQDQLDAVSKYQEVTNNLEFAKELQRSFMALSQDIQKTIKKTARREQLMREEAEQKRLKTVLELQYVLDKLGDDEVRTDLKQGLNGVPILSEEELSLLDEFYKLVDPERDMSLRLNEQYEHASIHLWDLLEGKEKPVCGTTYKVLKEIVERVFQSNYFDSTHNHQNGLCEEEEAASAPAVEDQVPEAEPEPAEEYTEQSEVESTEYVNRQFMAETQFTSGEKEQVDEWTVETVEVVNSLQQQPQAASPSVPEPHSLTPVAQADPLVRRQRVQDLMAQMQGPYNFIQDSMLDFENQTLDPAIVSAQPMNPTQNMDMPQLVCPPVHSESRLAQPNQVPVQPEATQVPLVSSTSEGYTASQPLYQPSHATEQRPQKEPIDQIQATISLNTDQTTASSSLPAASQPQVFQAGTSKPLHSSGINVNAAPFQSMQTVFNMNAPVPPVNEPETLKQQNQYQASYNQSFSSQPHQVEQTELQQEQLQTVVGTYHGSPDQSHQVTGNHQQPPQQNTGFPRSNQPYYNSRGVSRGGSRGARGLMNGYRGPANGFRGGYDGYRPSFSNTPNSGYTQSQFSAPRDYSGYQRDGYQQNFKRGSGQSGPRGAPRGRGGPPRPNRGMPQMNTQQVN

B1: mouse monoclonal antibody #8 (antibody, V domains shown)
VH: GGGLVKPGGSLKLSCAASGFAFSSYDMSWIRQTPEKRLEWVAYISSGAGSTYYPDTVKGRFTVSRDNAKNTLYLQMSSLKSEDTAMYYCARHFYRFDYWGQGTTVTVSS
VL: SIVMTQTPKFLLVSAGDRITITCKASQSVSNDVAWYQQKPGQSPKLLIYYASNRYTGVPDRFTGSGYGTDFTFTISTVQAEDLAVYFCQQDDRFPLTFGAGPS
notes: mouse hybridoma antibody; also called anti-CAPRIN-1 monoclonal antibody #8
B2: mouse monoclonal antibody #6 (antibody)
chain 1: DAELVKPGASVKISCKASGYTFTDHSIHWVQQKPEQGLEWIGYISPGNGNIKYNEKFKGKATLTADKSSSTAYMQLNSLTSEDSAVYFCKRSLGRGGPYYFDYWGQGTTVTVSS
chain 2: DIVLTQAAPSLPVTPGESVSISCRSSKSLLHSNGNTYLYWFLQRPGQSPQLLIYRMSNLASGVPDRFSGSGSGTAFTLRISRVEAEDVGVYYCMQHREYPVTFGSGPN
B3: mouse-chicken chimeric antibody #3 (antibody, mouse IgG1, V domains shown)
VH: AVTLDESGGGLQTPGGALSLVCKASGFTFSGYDMLWVRQAPGKGLEWVAGIGSTGGGTDYGAAVKGRATISRDNGQSTVRLQLNNLRAEDTATYYCAKVAGGCNSGYCRDSPGSIDAWGHGTEVIVS
VL: AVTQQPASVSANPGETVKITCSGGGSRNYYGWYQQKSPGSVPVTVIYYDDQRPSNIPSRFSGALSGSTSTLTITGVQADDEAVYFCGSADSNTYEGSFGAGTTLTVL
B4: mouse-chicken chimeric antibody #2 (antibody, mouse IgG1, V domains shown)
VH: AVTLDESGGGLQTPGGGLSLVCKASGFTFSSFDMGWVRQAPGKGLEFVAQINDAGSRTWYATAVKGRATISRDNGQTTVRLQLNNLRAEDTGTYYCTRGSGYVGAGAIDAWGHGTEVIVS
VL: AALTQPSSVSANPGETVKITCSGGSGYYGWYQQQKSPGSAPVTVIYQNDKRPSDIPSRFSGSGSGSTNTLTITGVQAEDEAVYFCGRYDSTDSGIFGAGTTLTVL
B5: mouse-chicken chimeric antibody #1 (antibody, mouse IgG1, V domains shown)
VH: AVTLDESGGGLQMSRGGLSLVCKASGFDFSSYQMNWIRQAPGKGLEFVAAINKFGNSTGHGAAVKGRVTISRDNGQSTVRLQLNNLRAEDTAIYFCTKHAYGYCGSGTWCAAGEIDAWGHGTEVIVSS
VL: QAASTQPSSVSANPGETVEITCSGGGSYSYGWFQQKSPGSAPVTVIYYNNKRPSDIPSRFSGSKSGSTGTLTITGVQADDEAVYYCGSGDSTDTAVFGAGTTLTVLG
B6: human-mouse chimeric anti-CAPRIN-1 antibody #36 (antibody, human IgG1, kappa)
heavy: not shown
light: QDELSNPVTSGESVSISCRSSKSLLYKDGKTYLNWFLQRPGQSPQLLIYLMSTRASGVSDRFSGSGSGTDFTLEISRVKAEDVGVYYCQQLVEDPLTFGAGTKLELKRTVAAPSVFIFPPSDEQLKSGTASVVCLLNNFYPREAKVQWKVDNALQSGNSQESVTEQDSKDSTYSLSSTLTLSKADYEKHKVYACEVTHQGLSSPVTKSFNRGEC
B7: human-mouse chimeric anti-CAPRIN-1 antibody #23 (antibody, human IgG1, kappa, V domains shown)
VH: GGGLVKPGGSLKLSCAASGFTFSSYGMSWVRQTPEKRLEWVATISSGGSYTYYPDSVKGRFTISRDNAKNTLYLQMSSLRSEDTAMYYCASLASYYFDYWGQGTTLTVSS
VL: GARCDVQMIQSPSSLSASLGDIVTMTCQASQGTSINLNWFQQKPGKAPKLLIYGASSLEDGVPSRFSGSCFGTDFTLTISSLEDEDMATYFCLQHSYLPPLTFGAGTKLELKR
B8: human-mouse chimeric anti-CAPRIN-1 antibody #24 (antibody, human IgG1, kappa, V domains shown)
VH: B7 VH
VL: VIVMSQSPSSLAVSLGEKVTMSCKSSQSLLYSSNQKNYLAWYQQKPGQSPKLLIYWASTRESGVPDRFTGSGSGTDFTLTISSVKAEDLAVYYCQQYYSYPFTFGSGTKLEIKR
B9: human-mouse chimeric anti-CAPRIN-1 antibody #25 (antibody, human IgG1, kappa, V domains shown)
VH: GPGLVQPSQSLSITCTVSGFSLTTYDLHWVRQSPGKGLEWLGVIWSGGSTDYNAAFISRLSISKDNSKSQVFFKMNSLQANDTAIYYCARNYGYSAWFAYWGQGTLVTVSA
VL: DVLMTQTPLSLPVSLGDQASISCRSSQSIVHSNGNTYLEWYLQKPGQSPKLLIYKVSNRFSGVPDRFSGSGSGTDFTLKISRVEAEDLGVYYCFQGSHVPLTFGAGTKLELKR
B10: human-mouse chimeric anti-CAPRIN-1 antibody #27 (antibody, human IgG1, kappa, V domains shown)
VH: GGGLVQPGGSMRLSCVASGFTFSNSWFNWVRQSPEKGLEWVAEIRLTSDNYAIYYAESVKGRFTISRDDSKSSVYLQMNNLRAEDTGIYYCTRPETARATFAYWGQGTTVTVSS
VL: B9 VL with L51V, S57F, L101R, A105G, E110N, L111Q, K112T, R113G
B11: human-mouse chimeric anti-CAPRIN-1 antibody #30 (antibody)
heavy: not shown
light: DVQITQSPSYLAASPGETITINCRASKSISKYLAWYQEKPGKTNKLLIYSGSTLQSGIPSRFSGSGSGTDFTLTISSLEPEDFAMYYCQQHNEYPYTFGGGTKLEIKRTVAAPSVFIFPPSDEQLKSGTASVVCLLNNFYPREAKVQWKVDNALQSGNSQESVTEQDSKDSTYSLSSTLTLSKADYEKHKVYACEVTHQGLSSPVTKSFNRGEC
B12: human-mouse chimeric anti-CAPRIN-1 antibody #31 (antibody, human IgG1, kappa)
heavy: not shown
light: B11 light with Y96W
B13: human-chicken chimeric antibody #2 (antibody, human IgG1, kappa, V domains shown)
VH: AVTLDESGGGLQTPGGGLSLVCKASGFTFSSFDMGWVRQAPGKGLEFVAQINDAGSRTWYATAVKGRATISRDNGQTTVRLQLNNLRAEDTGTYYCTRGSGYVGAGAIDAWGHGTEVIVSA
VL: AALTQPSSVSANPGETVKITCSGGSGYYGWYQQQKSPGSAPVTVIYQNDKRPSDIPSRFSGSGSGSTNTLTITGVQAEDEAVYFCGRYDSTDSGIFGAGTTLTVLT
B14: human-mouse chimeric anti-CAPRIN-1 antibody #34 (antibody, human IgG1, kappa, V domains shown)
VH: GAELVRPGTSVKVSCKASVYAFTNYLIEWVKQRPGQGLEWIGVINPKSGGTKYNEKFRGKATLTADKSSSTAYMQLSSLTSGDSAVYFCAITGTDYWGQGTTLTVSS
VL: QGTRCDIQMTQTTSSLSASLGDRVTISCSASQGINNYLNWYQQKPDGTVKLLIYYTSSLRSGVPSRFSGSGSGTDYSLTISNLEPEDVATYYCQQYSKLPRTFGGGTKLEIKR
B15: human-mouse chimeric anti-CAPRIN-1 antibody #28 (antibody, human IgG1, kappa, V domains shown)
VH: GPDLVKPGASVKISCKASGYSFTAYYMHWVKQSHGKSLEWIGRVNPNNGGTTYNQKFKGKAILTVDKSSSTAYMELRSLTFEDSAVYYCARRIYYGYFDYWGQGTTVTVSS
VL: AFFAVSLGQRATISCKASQSVDYDGDSYMNWYQQKPGQPPKLLIYVASNLESGVPARFSGSGSGTDFTLNIHPVEEEDAATYYCQQSNEDPYTFGGGTKLEIKQ
B16: human-mouse chimeric anti-CAPRIN-1 antibody #26 (antibody, human IgG1, kappa)
heavy: not shown
light: PASSSDVLMTQTPLSLPVRLGDQSSISCRSSQSIVHSNGNTYLEWYLQKPGQSPKLLIYKVSNRFSGVPDRFSGSGSGTDFTLKISRVEPEDLGVYYCFQGSHVPYTSEGDQAEIKLATVAAPSVFIFPPSDEQLKSGTASVVCLLNNFYPREAKVQWKVDNALQSGNSQESVTEQDSKDSTYSLSSTLTLSKADYEKHKVYACEVTHQGLSSPVTKSFNRGEC
B17: human-mouse chimeric anti-CAPRIN-1 antibody #29 (antibody, human IgG1, kappa)
heavy: not shown
light: GTCGDIVMSQSPSSLAVSAGEKVTMSCKSSQSLLNSRTRKNYLAWVQHKPGQSPRLLIYWASTRESGVPDRFTGSGSGTDFTLTISSVQAEDLAVYYCRQSYNLVTFGAGPSTVAAPSVFIFPPSDEQLKSGTASVVCLLNNFYPREAKVQWKVDNALQSGNSQESVTEQDSKDSTYSLSSTLTLSKADYEKHKVYACEVTHQGLSSPVTKSFNRGEC

In the first experiment the target is T1, CAPRIN-1 protein on the cell surface of …. Kind of experiment: flow cytometry on Hep3B, HepG2, SK-Hep-1, SW480; culture supernatant; vs isotype control. On the procedure:
Subsequently, four liver cancer cell lines (Hep3 GB, HepG2, SK-Hep-1, and SW480), which were confirmed to express a CAPRIN-1 gene, were investigated for whether or not a CAPRIN-1 protein is expressed on the surfaces of these cells. 1×10⁶ cells of each cell line were centrifuged with a 1.5-mL micro centrifugation tube. To the cells was added the culture supernatant (100 μL) containing any of mouse monoclonal antibodies #1 to #22 against a CAPRIN-1 protein reacting to cancer cell surface produced in Example 4 and mouse-chicken chimeric antibodies #1 to #3 against a CAPRIN-1 protein produced in the above (2), followed by being left to stand on ice for 1 hour. After washing with PBS, the cells were suspended in a FITC-labeled goat anti-mouse IgG antibody (manufactured by Invitrogen Corporation) diluted by 500-fold with PBS containing 0.1% FBS, followed by being left to stand on ice for 1 hour. After washing with PBS, the fluorescence intensity was measured with FACS Calibur available from Becton, Dickinson and Company. Separately, as a control, the same procedure as in above was performed using an iso-type control antibody, instead of the culture supernatants containing the mouse monoclonal antibodies #1 to #22 against a CAPRIN-1 protein and the mouse-chicken chimeric antibodies #1 to #3. As a result, the fluorescence intensity in the cells to which any of the monoclonal antibodies #1 to #22 and the mouse-chicken chimeric antibodies #1 to #3 was added was 20% or more higher than that in the control in every case. Specifically, in the case of using mouse-chicken chimeric antibody #1, the fluorescence intensity was enhanced by 200% or more in both SK-Hep-1 and Hep3B. […] The rate of increase in the fluorescence intensity is represented by the rate of increase in the mean fluorescence intensity (MFI value) in each cell and is calculated by the following calculation formula: […]
Take B1: the “rate of increase in mean fluorescence intensity” value (from here on “rate of increase”) was no less than 20%. With B2, the “rate of increase” value is no less than 20%.

Consider B3, for which the “rate of increase” value is no less than 20%. Still for that read-out and setting: in the case of B4 it was no less than 20%; in that of B5, no less than 20%.

The next experiment shares this target. Kind of experiment: cell-based or functional assay.
With B6, the “cytotoxicity (ADCC, 51Cr release, human NK cells) on Hep3B, HepG2, SK-Hep-1, SW480” value (shortened to “cytotoxicity … SW480”) is no less than 20%. Take B1: the “cytotoxicity (ADCC, 51Cr release) on SK-Hep-1” value (shortened to “cytotoxicity … on SK-Hep-1”) was no less than 12%.

Consider B7, for which the “ADCC activity on Hep3B, HepG2, SK-Hep-1, SW480” value (from here on “ADCC activity on Hep3B, HepG2”) is no less than 20%. For B8, the “ADCC activity on Hep3B, HepG2” value was no less than 20%.

For the molecule B2, the “cytotoxicity … on SK-Hep-1” value was no less than 12%. Take B9: the “ADCC activity on Hep3B, HepG2” value was no less than 20%.

With B10, the “ADCC activity on Hep3B, HepG2” value is no less than 20%.

Regarding B11, the “cytotoxicity … SW480” value is no less than 20%.

For the molecule B12, the “cytotoxicity … SW480” value was no less than 20%. As for B13, the “cytotoxicity … on SK-Hep-1” value was no less than 12%. In the case of B14, the “cytotoxicity … SW480” value is no less than 20%.

With B15, the “ADCC activity on Hep3B, HepG2” value was no less than 20%.

Regarding B16, the “ADCC activity on Hep3B, HepG2” value is no less than 20%.

For B17, the “ADCC activity on Hep3B, HepG2” value was no less than 20%.
